Binding signal (relative to H-Sc-N) and binding signal (relative to Jβ2.2) data for 4 sequences are collected here from article PMC212687.

The data set has as its target RAG1;RAG2;HMG (HMG-1/2) (;;) (UniProt P15919+P21784). The data set is described as follows: EMSA. Particulars: Standard gel shift, conditions as in Fugmann et al. 2000b (not given in the material), three experiments. On the technique in general: In EMSA bound probe runs differently from free probe, usually more slowly.

Turning to “GATCTGGCCTGGTCTGCACAGTGCAGATCTAGGAGACAAAAACCTGCACTCGAGCGGAG (double strand) [H-Sac-N]”, the binding signal (relative to H-Sc-N) (about 3-fold reduced vs H-Sc-N) came to 0.33. As to “GATCTGGCCTGGTCTGCACAACCCTGTGACTCCCAACAAAAACCTGCACTCGAGCGGAG (double strand) [N (Jβ2.6 with consensus nonamer)]”, the binding signal (relative to Jβ2.2) (up to level of Jβ2.2) stood at 1. “GATCTGGCCTGGTCTGCACAACCCTGTGACTCCCAAGAGAAACCTGCACTCGAGCGGAG (double strand) [Jβ2.6 12-RSS]”: the binding signal (relative to Jβ2.2) (about 2-fold reduced) worked out at 0.5.

As for “GATCTGGCCTGGTTTGCACAGTCCTGGAAATGCTGGCACAAACCTGCACTCGAGCGGAG (double strand) [Jβ2.2 12-RSS]”, the binding signal (relative to Jβ2.2) worked out at 1.
